This passage reports koff and kon results from paper PMC4694755.

Usually koff stands for a measure of how fast the partners let go of each other. Read a low koff as slow dissociation. For orientation: kon means the second-order rate constant of association. Read a high kon as faster complex formation.

This experiment concerns the target Mouse importin β (mouse) (UniProt P70168). The experiment in a line: SPR. For orientation: In SPR one partner is held on a chip, and binding of the other changes the refractive index at the surface.

Chain of Mouse importin β (mouse) (P70168 whole entry): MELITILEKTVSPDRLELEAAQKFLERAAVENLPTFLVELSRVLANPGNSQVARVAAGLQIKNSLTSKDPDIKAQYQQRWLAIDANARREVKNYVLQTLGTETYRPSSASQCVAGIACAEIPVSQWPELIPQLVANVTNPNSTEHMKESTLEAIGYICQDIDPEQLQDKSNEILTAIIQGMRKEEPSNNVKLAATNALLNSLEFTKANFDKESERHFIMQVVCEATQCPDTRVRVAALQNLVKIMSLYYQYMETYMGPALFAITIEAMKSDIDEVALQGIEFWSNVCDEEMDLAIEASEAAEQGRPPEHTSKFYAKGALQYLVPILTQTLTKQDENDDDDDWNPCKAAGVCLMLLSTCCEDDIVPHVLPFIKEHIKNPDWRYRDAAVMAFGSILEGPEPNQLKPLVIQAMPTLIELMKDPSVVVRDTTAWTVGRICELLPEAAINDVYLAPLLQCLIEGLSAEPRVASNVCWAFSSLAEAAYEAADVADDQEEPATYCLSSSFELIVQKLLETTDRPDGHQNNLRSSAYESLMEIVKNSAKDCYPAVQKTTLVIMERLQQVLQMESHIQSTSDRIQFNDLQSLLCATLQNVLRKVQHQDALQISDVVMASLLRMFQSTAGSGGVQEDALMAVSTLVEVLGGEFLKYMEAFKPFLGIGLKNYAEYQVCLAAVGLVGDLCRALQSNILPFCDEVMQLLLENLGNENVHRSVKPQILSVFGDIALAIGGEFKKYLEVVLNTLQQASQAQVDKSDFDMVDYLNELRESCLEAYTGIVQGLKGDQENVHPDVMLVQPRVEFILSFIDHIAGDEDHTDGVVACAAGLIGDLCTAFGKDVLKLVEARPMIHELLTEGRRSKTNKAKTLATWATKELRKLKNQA

As to “human RanGTP (from UniProt P62826 1-216) (natural protein; other documents disagree on this pair)”, the koff was 0.00107 s⁻¹ and the kon came out at 44400 M⁻¹ s⁻¹.
